Patent publication US20090324538A1

Columns and labels:
[1] = biological target: IL-15Rβγc receptors on 32Dβ cells; test: cell-based or functional assay
[2] = biological target: heterotrimeric IL-15R (αβγc chains) on CTLL-2 cells (UniProt Q60819); test: cell-based or functional assay
UniProt Q60819, sequence (Q60819 33-263, chain 1 of 3): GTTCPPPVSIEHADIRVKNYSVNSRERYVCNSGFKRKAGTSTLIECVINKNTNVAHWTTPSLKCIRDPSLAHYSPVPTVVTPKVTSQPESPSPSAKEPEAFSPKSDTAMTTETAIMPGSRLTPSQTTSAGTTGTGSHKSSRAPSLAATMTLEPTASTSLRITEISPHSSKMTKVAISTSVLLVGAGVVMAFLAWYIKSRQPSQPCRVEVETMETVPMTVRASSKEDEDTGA
UniProt Q60819, sequence (P16297 27-539, chain 2 of 3, further chain): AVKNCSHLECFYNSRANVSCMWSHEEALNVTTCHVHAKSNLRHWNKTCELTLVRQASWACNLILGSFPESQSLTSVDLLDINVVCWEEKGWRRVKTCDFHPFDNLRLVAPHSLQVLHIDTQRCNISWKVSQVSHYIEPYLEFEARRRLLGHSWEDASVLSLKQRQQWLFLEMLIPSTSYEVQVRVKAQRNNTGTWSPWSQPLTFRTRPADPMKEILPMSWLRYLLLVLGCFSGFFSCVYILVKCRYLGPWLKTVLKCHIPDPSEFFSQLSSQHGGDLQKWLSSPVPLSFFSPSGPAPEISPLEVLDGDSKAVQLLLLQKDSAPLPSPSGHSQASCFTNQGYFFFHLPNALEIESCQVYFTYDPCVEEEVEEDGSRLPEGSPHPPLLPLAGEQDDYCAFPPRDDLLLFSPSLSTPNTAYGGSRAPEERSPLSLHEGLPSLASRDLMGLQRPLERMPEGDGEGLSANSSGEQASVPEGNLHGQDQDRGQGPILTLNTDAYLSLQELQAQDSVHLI
UniProt Q60819, sequence (P34902 23-369, chain 3 of 3, further chain): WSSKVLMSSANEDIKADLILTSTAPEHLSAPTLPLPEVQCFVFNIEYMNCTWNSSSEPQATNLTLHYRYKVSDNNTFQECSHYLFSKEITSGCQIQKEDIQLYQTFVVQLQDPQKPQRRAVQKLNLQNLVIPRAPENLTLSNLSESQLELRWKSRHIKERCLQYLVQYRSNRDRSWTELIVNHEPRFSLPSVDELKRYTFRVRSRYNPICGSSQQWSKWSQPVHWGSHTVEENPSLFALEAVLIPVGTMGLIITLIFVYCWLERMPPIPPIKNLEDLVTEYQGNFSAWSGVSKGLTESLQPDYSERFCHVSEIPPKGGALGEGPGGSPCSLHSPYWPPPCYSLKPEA

Row | proliferation of 32Dβ cells (WST-1), lowest concentration with biological activity [1] [pM] | inhibition of c264scTCR/huIL15 stimulatory activity on CTLL-2 proliferation after complex formation [2] [fold] | Substance
1 | 80 | – | c264scTCR/huIL15N72D fusion protein (from UniProt P01857 99-113)
2 | – | 4 | c264scTCR/huIL15+c264scTCR/huIL15RαΔE3 fusion protein complex (from UniProt Q13261 31-205)
